Measurements reported in paper PMC4559223 (Journal of molecular biology, 2008).

B1: mouse GATA3 C-terminal zinc finger (amino acid residues 308-370) (domain or fragment, UniProt P23772 308-370, looked up)
chain: SAARRAGTSCANCQTTTTTLWRRNANGDPVCNACGLYYKLHNINRPLTMKKEGIQTRNRKMSS
B2: mouse GATA3 double zinc finger fragment (amino acids 260-370) (domain or fragment)
chain: not shown

How the values were obtained:
crystal structure = target: the molecule itself; assay: crystal structure
native gel or EMSA = target: the molecule itself; assay: native gel or EMSA

Protein	binding result (crystal structure)	binding result (native gel or EMSA)
B1	binds	
B2		binds
